According to article PMC7758071, “Calcium depletion challenges endoplasmic reticulum proteostasis by destabilising BiP-substrate complexes” (eLife, 2020):
Values joined by “and” are separate entries in the source; they are usually repeats but may differ in a detail not shown here. Equal values may be shown once. Ends that are not written are not given here. * marks the point of attachment. Biotin = O=C1N[C@H]2[C@H](CS[C@H]2CCCCC(=O)*)N1

What was measured:
[1] = target: the molecule itself; assay: crystal structure; BiP^T229A-V461F (28-549) at 150 µM with equimolar FICD^L258D-H363A and 175 µM ATP (FICD excluded from the crystals); apo: 20% PEG3350, 0.1 M Bis-Tris Propane pH 7.5, 0.2 M Na3Citrate; ADP-bound: 20% PEG3350, 0.2 M K3Citrate
[2] = target: T1, DnaK from Escherichia coli (UK2243) (Escherichia coli, UniProt P0A6Y8 1-638); assay: BLI; as a14, but dissociation with Mg + Ca + ATP + ADP; conditions: both partners purified
T1 construct: DnaK, the Hsp70 of Escherichia coli; also called bacterial DnaK; source: E. coli BL21 T7 Express lysY/Iq, purified (Ni-NTA, Ulp1 cleavage, anion exchange, second Ni-NTA); not shown: His6-Smt3, N-terminal, cleaved
T1 sequence (P0A6Y8 whole entry): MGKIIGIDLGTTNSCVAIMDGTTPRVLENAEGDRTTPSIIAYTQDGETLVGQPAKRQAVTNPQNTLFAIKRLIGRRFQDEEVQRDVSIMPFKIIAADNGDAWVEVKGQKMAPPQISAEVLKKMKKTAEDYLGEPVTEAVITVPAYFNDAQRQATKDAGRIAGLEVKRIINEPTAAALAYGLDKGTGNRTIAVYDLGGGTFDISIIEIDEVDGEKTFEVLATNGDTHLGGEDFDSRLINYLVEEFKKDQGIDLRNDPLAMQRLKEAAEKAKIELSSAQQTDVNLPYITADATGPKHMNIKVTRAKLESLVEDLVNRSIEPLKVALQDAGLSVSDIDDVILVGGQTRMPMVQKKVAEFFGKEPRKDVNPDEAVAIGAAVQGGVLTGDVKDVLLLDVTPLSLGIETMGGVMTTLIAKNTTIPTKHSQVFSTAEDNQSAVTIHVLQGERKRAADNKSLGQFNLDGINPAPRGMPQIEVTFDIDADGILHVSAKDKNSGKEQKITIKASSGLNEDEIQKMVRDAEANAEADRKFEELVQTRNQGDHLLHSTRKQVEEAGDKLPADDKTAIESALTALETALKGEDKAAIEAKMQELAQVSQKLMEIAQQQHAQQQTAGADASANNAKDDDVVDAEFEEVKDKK

[3] = target: T2, BiP (Chinese hamster, wild type, UK173) (Chinese hamster, UniProt G3I8R9 19-654); assay: BLI; as a1, association with Mg + ATP; dissociation with Mg + ADP; conditions: both partners purified
T2 construct: BiP (Grp78), the ER Hsp70 chaperone, Chinese hamster (Cricetulus griseus), wild type; called full-length BiP in the results; also called Grp78; mammalian BiP; source: E. coli M15, purified (Ni-NTA)
T2 sequence (G3I8R9 19-654): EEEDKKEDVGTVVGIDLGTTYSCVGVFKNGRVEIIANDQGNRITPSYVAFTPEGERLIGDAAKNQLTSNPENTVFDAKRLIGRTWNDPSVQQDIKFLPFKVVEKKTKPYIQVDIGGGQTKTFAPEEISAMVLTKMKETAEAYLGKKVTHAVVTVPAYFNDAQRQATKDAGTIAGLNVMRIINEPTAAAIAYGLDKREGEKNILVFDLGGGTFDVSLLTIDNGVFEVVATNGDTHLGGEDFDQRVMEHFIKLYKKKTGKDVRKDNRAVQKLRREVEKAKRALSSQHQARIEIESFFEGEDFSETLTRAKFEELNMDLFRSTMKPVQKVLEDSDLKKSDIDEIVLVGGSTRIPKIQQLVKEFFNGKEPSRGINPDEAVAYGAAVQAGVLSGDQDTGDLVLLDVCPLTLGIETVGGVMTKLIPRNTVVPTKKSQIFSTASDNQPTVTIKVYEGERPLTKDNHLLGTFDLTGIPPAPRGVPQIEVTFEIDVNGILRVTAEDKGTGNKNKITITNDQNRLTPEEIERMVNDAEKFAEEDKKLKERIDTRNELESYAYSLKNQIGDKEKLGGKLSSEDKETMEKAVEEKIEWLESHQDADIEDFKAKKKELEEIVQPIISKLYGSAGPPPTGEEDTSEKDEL

[4] = target: T2, BiP (Chinese hamster, wild type, UK173); assay: BLI; as a1, association with Mg + ATP; dissociation (step 1) with Ca + ADP; conditions: both partners purified
[5] = target: T2, BiP (Chinese hamster, wild type, UK173); assay: BLI; as a7, but dissociation with Mg + Ca + ATP + ADP ([MgCl2]/[CaCl2]=3; [ATP]/[ADP]=2); conditions: both partners purified
[6] = target: T2, BiP (Chinese hamster, wild type, UK173); assay: BLI; as a7, dissociation with Mg + ATP + ADP and Grp170 present in the dissociation step; conditions: both partners purified
[7] = target: T2, BiP (Chinese hamster, wild type, UK173); assay: BLI; as a7, but dissociation with Mg + Ca + ATP + ADP ([MgCl2]/[CaCl2]=3; [ATP]/[ADP]=2); conditions: both partners purified; remark: listed apart in the source
[8] = target: T3, BiP from Drosophila melanogaster (UK2354) (Drosophila melanogaster, UniProt P29844 19-656); assay: as above; conditions: both partners purified
T3 construct: BiP homologue of Drosophila melanogaster; the ER signal peptide is probably absent from the bacterial construct; also called dBiP; Drosophila BiP; source: E. coli BL21 T7 Express lysY/Iq, purified (Ni-NTA, Ulp1 cleavage, anion exchange); not shown: His6-Smt3, N-terminal, cleaved
T3 sequence (P29844 19-656): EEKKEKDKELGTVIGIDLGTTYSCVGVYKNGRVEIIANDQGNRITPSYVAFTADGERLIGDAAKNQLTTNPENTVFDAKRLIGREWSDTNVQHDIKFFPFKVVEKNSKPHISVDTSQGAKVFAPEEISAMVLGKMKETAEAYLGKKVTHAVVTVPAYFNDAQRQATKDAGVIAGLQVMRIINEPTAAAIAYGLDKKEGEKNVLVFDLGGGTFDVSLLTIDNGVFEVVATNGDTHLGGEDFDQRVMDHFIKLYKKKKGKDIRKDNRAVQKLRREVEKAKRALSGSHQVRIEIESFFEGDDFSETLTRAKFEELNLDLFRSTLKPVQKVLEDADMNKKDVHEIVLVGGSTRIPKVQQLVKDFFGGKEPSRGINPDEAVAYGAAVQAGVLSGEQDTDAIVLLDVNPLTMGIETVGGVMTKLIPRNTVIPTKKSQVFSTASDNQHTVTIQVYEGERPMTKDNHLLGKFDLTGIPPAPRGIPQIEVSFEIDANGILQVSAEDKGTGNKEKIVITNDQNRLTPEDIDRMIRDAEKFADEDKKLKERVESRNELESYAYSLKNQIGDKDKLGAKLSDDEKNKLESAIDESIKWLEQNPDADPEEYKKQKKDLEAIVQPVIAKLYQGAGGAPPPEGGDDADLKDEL

[9] = target: T4, human cytosolic Hsp70 (HSPA1A; UK2510; natural variant E110D) (human, UniProt P0DMV8 1-641, E110D); assay: as above; conditions: both partners purified
T4 construct: human cytosolic Hsp70 (HSPA1A), natural variant E110D; source: E. coli BL21 T7 Express lysY/Iq, purified (Ni-NTA, Ulp1 cleavage, anion exchange); not shown: His6-Smt3, N-terminal, cleaved
T4 sequence (P0DMV8 whole entry E110D): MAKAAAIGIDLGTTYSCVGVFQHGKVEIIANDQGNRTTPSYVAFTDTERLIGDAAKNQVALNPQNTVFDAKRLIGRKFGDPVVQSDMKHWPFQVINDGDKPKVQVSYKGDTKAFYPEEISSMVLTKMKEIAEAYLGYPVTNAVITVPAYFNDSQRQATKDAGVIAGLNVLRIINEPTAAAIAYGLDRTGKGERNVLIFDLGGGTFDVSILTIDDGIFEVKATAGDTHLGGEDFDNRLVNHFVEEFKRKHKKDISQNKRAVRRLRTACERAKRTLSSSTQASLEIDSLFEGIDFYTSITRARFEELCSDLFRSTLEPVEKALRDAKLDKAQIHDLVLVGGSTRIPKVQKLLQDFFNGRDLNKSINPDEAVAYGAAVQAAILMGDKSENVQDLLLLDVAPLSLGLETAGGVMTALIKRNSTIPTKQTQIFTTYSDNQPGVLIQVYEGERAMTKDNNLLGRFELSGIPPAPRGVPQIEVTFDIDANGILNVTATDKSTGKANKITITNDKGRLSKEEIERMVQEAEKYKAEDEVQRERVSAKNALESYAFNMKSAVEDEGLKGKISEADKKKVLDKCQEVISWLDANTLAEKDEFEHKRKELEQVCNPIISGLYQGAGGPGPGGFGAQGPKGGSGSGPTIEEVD

[10] = target: T5, human Hsc70 (HSPA8; UK2511) (human, UniProt P11142 1-646); assay: as above; conditions: both partners purified
T5 construct: human cytosolic Hsc70 (HSPA8); source: E. coli BL21 T7 Express lysY/Iq, purified (Ni-NTA, Ulp1 cleavage, anion exchange); not shown: His6-Smt3, N-terminal, cleaved
T5 sequence (P11142 whole entry): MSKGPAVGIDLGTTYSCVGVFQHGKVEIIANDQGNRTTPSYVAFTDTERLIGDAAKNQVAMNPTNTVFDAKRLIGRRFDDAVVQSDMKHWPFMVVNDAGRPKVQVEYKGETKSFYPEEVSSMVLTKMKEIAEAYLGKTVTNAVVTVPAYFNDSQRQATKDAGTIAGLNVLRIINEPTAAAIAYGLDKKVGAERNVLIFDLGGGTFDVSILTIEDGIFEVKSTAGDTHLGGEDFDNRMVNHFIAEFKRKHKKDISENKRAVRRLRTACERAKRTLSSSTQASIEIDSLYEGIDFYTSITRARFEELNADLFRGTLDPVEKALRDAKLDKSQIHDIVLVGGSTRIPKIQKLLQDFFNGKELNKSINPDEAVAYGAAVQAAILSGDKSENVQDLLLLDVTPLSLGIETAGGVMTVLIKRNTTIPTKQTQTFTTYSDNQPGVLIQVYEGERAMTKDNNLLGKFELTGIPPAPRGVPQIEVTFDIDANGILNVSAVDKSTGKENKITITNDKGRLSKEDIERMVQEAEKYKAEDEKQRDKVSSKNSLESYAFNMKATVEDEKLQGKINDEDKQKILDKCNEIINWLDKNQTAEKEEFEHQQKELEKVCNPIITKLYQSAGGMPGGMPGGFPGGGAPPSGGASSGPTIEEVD

[11] = target: T2, BiP (Chinese hamster, wild type, UK173); assay: as above; conditions: both partners purified; remark: listed apart in the source
[12] = target: T2, BiP (Chinese hamster, wild type, UK173); assay: BLI; as a1, association with Mg + ATP; dissociation with Mg + Ca + ATP ([MgCl2]/[CaCl2]=3); conditions: both partners purified
[13] = target: T2, BiP (Chinese hamster, wild type, UK173); assay: BLI; as a8, dissociation with Mg + Ca + ATP + ADP and Grp170 present in the dissociation step; conditions: both partners purified
[14] = target: T2, BiP (Chinese hamster, wild type, UK173); assay: BLI; as a1, but association with Mg + Ca + ATP ([MgCl2]/[CaCl2]=3); dissociation with Mg + ATP; conditions: both partners purified
[15] = target: T2, BiP (Chinese hamster, wild type, UK173); assay: BLI; as a1, association with Mg + ATP; dissociation with Ca + ATP (Ca2+ the only divalent cation); conditions: both partners purified
[16] = target: T2, BiP (Chinese hamster, wild type, UK173); assay: BLI; as a1, but the non-functional H422Q J-domain (J^QPD) co-immobilised with P15; association with Mg + ATP; dissociation with Mg + ATP; conditions: both partners purified
[17] = target: T2, BiP (Chinese hamster, wild type, UK173); assay: as above; conditions: both partners purified; remark: listed apart in the source
[18] = target: T2, BiP (Chinese hamster, wild type, UK173); assay: BLI; as a1, association with Mg + ATP; first dissociation step with Ca + ADP, then second dissociation step (the one fitted) with Mg + ATP; conditions: both partners purified
[19] = target: T2, BiP (Chinese hamster, wild type, UK173); assay: BLI; as a1, association with Mg + ATP; first dissociation step with Mg + ADP, then second dissociation step (the one fitted) with Mg + ATP; conditions: both partners purified
[20] = target: T2, BiP (Chinese hamster, wild type, UK173); assay: BLI; streptavidin sensor with biotinylated ERdj6 J-domain (J) and biotinylated P15 co-immobilised; association: 5 µM BiP, MgCl2 + ATP; dissociation in protein-free solution with Mg + ATP; 28°C; 50 mM HEPES-KOH pH 7.4, 100 mM KCl, 0.2 mM TCEP, 0.05% Triton X-100; one-phase decay fit; conditions: both partners purified
[21] = target: T2, BiP (Chinese hamster, wild type, UK173); assay: BLI; streptavidin sensor with biotinylated ERdj6 J-domain (J) and biotinylated P15 co-immobilised; association: 5 µM Hsp70, 3 mM MgCl2, 1.5 mM ATP; dissociation in protein-free solution with Mg + ATP + ADP ([ATP]/[ADP]=2); 28°C; 50 mM HEPES-KOH pH 7.4, 100 mM KCl, 0.2 mM TCEP, 0.05% Triton X-100; one-phase decay fit; conditions: both partners purified
[22] = target: T2, BiP (Chinese hamster, wild type, UK173); assay: as above; conditions: both partners purified; remark: listed apart in the source
[23] = target: T3, BiP from Drosophila melanogaster …; assay: as above; conditions: both partners purified
[24] = target: T4, human cytosolic Hsp70 (HSPA1A; UK2510; …); assay: as above; conditions: both partners purified
[25] = target: T5, human Hsc70 (HSPA8; UK2511); assay: as above; conditions: both partners purified
[26] = target: T2, BiP (Chinese hamster, wild type, UK173); assay: as above; conditions: both partners purified; remark: listed apart in the source
[27] = target: T1, DnaK from Escherichia coli (UK2243); assay: BLI; streptavidin sensor with biotinylated J-domain of E. coli DnaJ (residues 1-72) and biotinylated P15 co-immobilised; association: 5 µM DnaK, 3 mM MgCl2, 1.5 mM ATP; dissociation in protein-free solution with Mg + ATP + ADP ([ATP]/[ADP]=2); 28°C; 50 mM HEPES-KOH pH 7.4, 100 mM KCl, 0.2 mM TCEP, 0.05% Triton X-100; one-phase decay fit; conditions: both partners purified

B1: Chinese hamster BiP^T229A-V461F (residues 28–549), lid-truncated (domain or fragment)
chain: not shown
notes: also called apo BiP oligomer; ADP BiP oligomer; source: E. coli M15, purified (as in Perera et al., 2019; anion exchange, gel filtration)
- binding result [1]: binds

B2: P15 BiP substrate peptide (peptide)
peptide: ALLLSAPRRGAGKK(Biotin)
notes: substrate peptide P15 (Misselwitz et al., 1998); Held on streptavidin BLI sensors together with a biotinylated J-domain (ERdj6 residues 390-455, wild type or H422Q; for DnaK the J-domain of DnaJ, residues 1-72); source: synthetic peptide (custom synthesis, GenScript)
- koff [2]: 0.00636 s⁻¹ and 0.00686 s⁻¹ and 0.00525 s⁻¹ and 0.00615 s⁻¹
- koff [3]: 0.00145 s⁻¹ (2×) and 0.00148 s⁻¹
- koff ([3]; mean): 0.00146 s⁻¹
- koff [4]: 0.00121 s⁻¹ and 0.0012 s⁻¹ and 0.00122 s⁻¹
- koff ([4]; mean): 0.00121 s⁻¹
- koff [5]: 0.00239 s⁻¹ and 0.00247 s⁻¹ and 0.00254 s⁻¹
- koff ([5]; mean): 0.00247 s⁻¹
- koff [6]: 0.0103 s⁻¹ and 0.00955 s⁻¹ and 0.00937 s⁻¹
- koff ([6]; mean): 0.00974 s⁻¹
- koff [7]: 0.0025 s⁻¹ and 0.00254 s⁻¹ and 0.00241 s⁻¹ and 0.00255 s⁻¹
- koff [8]: 0.00384 s⁻¹ and 0.00414 s⁻¹ and 0.00359 s⁻¹ and 0.0038 s⁻¹
- koff [9]: 0.00171 s⁻¹ and 0.00178 s⁻¹ and 0.00164 s⁻¹
- koff [10]: 0.00336 s⁻¹ and 0.00333 s⁻¹ and 0.00344 s⁻¹ and 0.00318 s⁻¹
- koff [11]: 0.0025 s⁻¹ and 0.0024 s⁻¹ and 0.00243 s⁻¹
- koff ([11]; mean): 0.00244 s⁻¹
- koff [12]: 0.00575 s⁻¹ and 0.00678 s⁻¹ and 0.00573 s⁻¹
- koff ([12]; mean): 0.00609 s⁻¹
- koff [13]: 0.00682 s⁻¹ and 0.00595 s⁻¹ and 0.00602 s⁻¹
- koff ([13]; mean): 0.00626 s⁻¹
- koff [14]: 0.00546 s⁻¹ and 0.00506 s⁻¹ and 0.00591 s⁻¹
- koff ([14]; mean): 0.00547 s⁻¹
- koff [15]: 0.0074 s⁻¹ and 0.00639 s⁻¹ and 0.00848 s⁻¹
- koff ([15]; mean): 0.00742 s⁻¹
- koff [16]: 0.00203 s⁻¹ and 0.000861 s⁻¹ and 0.000902 s⁻¹
- koff ([16]; mean): 0.00127 s⁻¹
- koff [17]: 0.00101 s⁻¹ and 0.000958 s⁻¹ and 0.00117 s⁻¹
- koff ([17]; mean): 0.00105 s⁻¹
- koff [18]: 0.00294 s⁻¹ and 0.00337 s⁻¹ and 0.00333 s⁻¹
- koff ([18]; mean): 0.00321 s⁻¹
- koff [19]: 0.00684 s⁻¹ and 0.00682 s⁻¹ and 0.00672 s⁻¹
- koff ([19]; mean): 0.00679 s⁻¹
- koff [20]: 0.00583 s⁻¹ and 0.00632 s⁻¹ and 0.00607 s⁻¹
- koff ([20]; mean): 0.00607 s⁻¹
- koff [21]: 0.00421 s⁻¹ and 0.00438 s⁻¹ and 0.00441 s⁻¹
- koff ([21]; mean): 0.00433 s⁻¹
- koff [22]: 0.00441 s⁻¹ and 0.00438 s⁻¹ and 0.00434 s⁻¹ and 0.00453 s⁻¹
- koff [23]: 0.00811 s⁻¹ and 0.00832 s⁻¹ and 0.00795 s⁻¹ and 0.00806 s⁻¹
- koff [24]: 0.00203 s⁻¹ and 0.00225 s⁻¹ and 0.00198 s⁻¹ and 0.00185 s⁻¹
- koff [25]: 0.00395 s⁻¹ and 0.00411 s⁻¹ and 0.00394 s⁻¹ and 0.0038 s⁻¹
- koff [26]: 0.00434 s⁻¹ (2×) and 0.00424 s⁻¹
- koff ([26]; mean): 0.00431 s⁻¹
- koff [27]: 0.00693 s⁻¹ and 0.00776 s⁻¹ and 0.00549 s⁻¹ and 0.00673 s⁻¹
